Measurements published in PMC3605159, “Twist1 Controls a Cell-Specification Switch Governing Cell Fate Decisions within the Cardiac Neural Crest” (PLoS Genetics, 2013).

T1: Sox10 (rat, UniProt O55170 1-466)
T1 sequence (looked up): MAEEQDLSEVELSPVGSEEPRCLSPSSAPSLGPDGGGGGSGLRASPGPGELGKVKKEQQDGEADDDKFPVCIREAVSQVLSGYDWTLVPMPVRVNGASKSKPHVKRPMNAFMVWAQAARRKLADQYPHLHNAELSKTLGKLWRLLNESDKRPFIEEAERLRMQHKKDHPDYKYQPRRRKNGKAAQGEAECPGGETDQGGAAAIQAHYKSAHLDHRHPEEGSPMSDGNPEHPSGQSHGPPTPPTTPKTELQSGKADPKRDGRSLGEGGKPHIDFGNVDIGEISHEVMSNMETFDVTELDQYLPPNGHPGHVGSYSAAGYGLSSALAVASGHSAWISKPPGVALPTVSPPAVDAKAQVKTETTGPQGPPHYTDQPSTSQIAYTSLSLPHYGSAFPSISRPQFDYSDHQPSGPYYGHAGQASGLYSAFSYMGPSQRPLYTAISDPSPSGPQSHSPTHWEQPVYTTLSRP


Target: T1, Sox10
Assay: cell-based or functional assay

luciferase transactivation of the Phox2b promoter by Sox10 in HeLa cells with Twist1 co-expressed (Sox10 alone 48.9+/−2.2-fold) | luciferase transactivation of the Phox2b promoter by Sox10 in HeLa cells with Twist1 S192P co-expressed (Sox10 alone 48.9+/−2.2-fold) | Binder
26.3 fold |  | Twist1 (natural protein, UniProt P26687 1-206, looked up) MMQDVSSSPVSPADDSLSNSEEEPDRQQPASGKRGARKRRSSRRSAGGSAGPGGATGGGIGGGDEPGSPAQGKRGKKSAGGGGGGGAGGGGGGGGGSSSGGGSPQSYEELQTQRVMANVRERQRTQSLNEAFAALRKIIPTLPSDKLSKIQTLKLAARYIDFLYQVLQSDELDSKMASCSYVAHERLSYAFSVWRMEGAWSMSASH
 | 49.3 fold | Twist1 S192P (natural protein, UniProt P26687 1-206, looked up) MMQDVSSSPVSPADDSLSNSEEEPDRQQPASGKRGARKRRSSRRSAGGSAGPGGATGGGIGGGDEPGSPAQGKRGKKSAGGGGGGGAGGGGGGGGGSSSGGGSPQSYEELQTQRVMANVRERQRTQSLNEAFAALRKIIPTLPSDKLSKIQTLKLAARYIDFLYQVLQSDELDSKMASCSYVAHERLSYAFPVWRMEGAWSMSASH
